Experimental data taken from publication PMC8040518 (The Journal of Experimental Medicine, 2021).

Biological target: LGTV E protein (strain TP21) in C-prM-E–transfected HEK-293T cells (Langat virus strain TP21, UniProt Q9IG40)
Experiment: cell-based or functional assay

B1: POWV-80 mAb (antibody, V domains shown)
VH: EVKLVESEGGLVQPGSSMKVSCTASGFTFSHYYMAWVRQVPEKGLEWVANINYDGTSTYYLDSLKSRFIISRDNANNILYLQMSSLKSEDTAIYYCAREEGYGNPYPYWYFDVWGTGTTVTVSS
VL: QIVLTQSPAILSASPGEKVTMTCRASSSVSYMHWYQQKPGSSPKSWIYATSNLASGVPTRFSGSGSGTSYSLTISRVEAEDAATYYCQQRSSNPRTFGGGTKLEIK
Q: How did the “EC50 of neutralization of LGTV, FRNT in Vero cells” value turn out when B1 was run?
A: 10.4 µg/mL
